Common to all, as to conditions: tags: C-terminal His6 (pET-22b, E. coli); label: Cy5
Data set [1] deals with T1, CebR (SCAB57761) (Streptomyces scabies 87-22).
T1 chain: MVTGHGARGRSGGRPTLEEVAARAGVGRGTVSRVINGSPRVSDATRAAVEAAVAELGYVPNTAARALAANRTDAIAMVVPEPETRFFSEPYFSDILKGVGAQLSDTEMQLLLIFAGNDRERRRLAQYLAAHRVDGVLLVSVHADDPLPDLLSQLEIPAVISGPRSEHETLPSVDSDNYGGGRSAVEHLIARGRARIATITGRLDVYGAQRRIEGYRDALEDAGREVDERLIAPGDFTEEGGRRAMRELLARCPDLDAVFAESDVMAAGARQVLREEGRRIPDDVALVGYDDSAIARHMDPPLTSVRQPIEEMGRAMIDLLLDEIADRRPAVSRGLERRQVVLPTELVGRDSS
Briefly: EMSA; strong binding, positive control; excess nonspecific salmon sperm DNA; same buffer; inhibited by cellobiose. (In general: A gel shift assay detects complexes by their altered migration in electrophoresis.)

Data set [2] deals with T1, CebR (SCAB57761). Nature of the data set: EMSA; strong binding with 20-fold excess nonspecific salmon sperm DNA; same buffer; inhibited by cellobiose.
Data set [3] addresses T1, CebR (SCAB57761). Briefly: EMSA; strong binding with 20-fold excess nonspecific salmon sperm DNA; 0.08-3.2 uM CebR; pH 7.5, 0.25 mM CaCl2, 0.5 mM MgCl2, 50 mM KCl, room temperature; inhibited by cellobiose.

B1: cbs bglC probe (dsDNA)
DNA 1: GGTTCAGGCATGGAAGCGCTCCCATTGGTGGTCG
DNA 2: CGACCACCAATGGGAGCGCTTCCATGCCTGAACC
As for B1, the binding result in the data set with CebR (SCAB57761) [1] is listed as “binds”.

B2: cbs cebR-E probe (dsDNA)
DNA 1: CCAGGTACTGTGGGAGCGCTCCCACGAGTGATGT
DNA 2: ACATCACTCGTGGGAGCGCTCCCACAGTACCTGG
On to B2, for which the binding result with CebR (SCAB57761) [1] is recorded as “binds”.

B3: cbs txtB probe (dsDNA)
DNA 1: CTCCCCCAGGGGGAGCGCTCCCACTGCGCTGTA
DNA 2: TACAGCGCAGTGGGAGCGCTCCCCCTGGGGGAG
For the molecule B3, the binding result with CebR (SCAB57761) [2] is “binds”.

B4: cbs txtR-A probe (dsDNA)
DNA 1: TGTCAATAAGCGGGAGCGCTCCCACAGCGCTCTC
DNA 2: GAGAGCGCTGTGGGAGCGCTCCCGCTTATTGACA
B4: the binding result in the data set with CebR (SCAB57761) [3] was “binds”.
